According to paper PMC3192196 (Angewandte Chemie (International Ed. in English), 2011):

Columns and labels:
PSMA [1] = target: T1, PSMA (Homo sapiens, UniProt Q04609); experiment: fluorescence-based PSMA inhibition assay; assay type: biochemical
[2] = electronic absorption and fluorescence spectroscopy; assay type: physicochemical; conditions: for emission maximum / fluorescence lifetime: aqueous solution; for extinction coefficient: at absorbance maximum 776 nm; for absorbance maximum: electronic spectra; for quantum yield: in PBS
in vivo = conditions: SCID, mouse, PSMA− PC3-flu tumor
[3] = ex vivo biodistribution, normal tissues; conditions: for tissue uptake at 1 h / tissue uptake at 2 h / tissue uptake at 5 h / tissue uptake at 24 h: SCID, mouse
[4] = test system: PSMA+ PC3-PIP and PSMA− PC3-flu xenografts; experiment: sequential SPECT-CT and optical; assay type: in vivo, severe-combined immune-deficient (SCID) mice
PSMA [5] = target: T1, PSMA; experiment: blocking of uptake with ZJ43; assay type: in vivo; conditions: blocking dose 50 mg/Kg ZJ43 (Figure S9)
[6] = ex vivo biodistribution, PSMA+ PC3 PIP tumor; assay type: in vivo, severe-combined immune-deficient (SCID) mice; conditions: SCID, mouse, PSMA+ PC3-PIP tumor
PSMA+ PC3-PIP xenografts = experiment: ex vivo biodistribution, PSMA+ PC3 PIP tumor; assay type: in vivo, severe-combined immune-deficient (SCID) mice; conditions: for PIP:flu uptake ratio: PSMA+ PIP to PSMA− flu tumor

T1 sequence (Q04609 whole entry): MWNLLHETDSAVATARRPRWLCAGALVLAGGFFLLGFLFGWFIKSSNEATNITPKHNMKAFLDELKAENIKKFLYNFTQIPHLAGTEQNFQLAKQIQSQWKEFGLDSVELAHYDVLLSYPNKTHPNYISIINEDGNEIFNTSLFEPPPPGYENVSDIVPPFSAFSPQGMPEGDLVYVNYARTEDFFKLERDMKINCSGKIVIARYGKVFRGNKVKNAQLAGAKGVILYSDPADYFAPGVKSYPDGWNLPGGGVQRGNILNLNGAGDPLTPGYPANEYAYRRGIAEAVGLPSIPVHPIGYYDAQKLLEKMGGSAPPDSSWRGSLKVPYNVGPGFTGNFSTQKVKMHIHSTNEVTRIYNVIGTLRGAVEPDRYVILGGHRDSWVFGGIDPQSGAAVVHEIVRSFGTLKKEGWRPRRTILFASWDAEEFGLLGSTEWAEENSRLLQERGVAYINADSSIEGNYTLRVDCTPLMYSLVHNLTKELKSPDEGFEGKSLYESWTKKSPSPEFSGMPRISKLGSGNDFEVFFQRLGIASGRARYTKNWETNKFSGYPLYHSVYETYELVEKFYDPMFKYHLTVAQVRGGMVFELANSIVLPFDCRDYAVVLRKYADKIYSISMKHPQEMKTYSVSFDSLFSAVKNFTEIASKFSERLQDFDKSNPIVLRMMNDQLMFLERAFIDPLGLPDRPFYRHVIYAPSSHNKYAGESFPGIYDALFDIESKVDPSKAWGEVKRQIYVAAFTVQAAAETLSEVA

## CC1(C)C(=CC=C2CCCC(C=CC3=[N+](CCCCS(=O)(=O)O)c4ccc(S(=O)(=O)[O-])cc4C3(C)C)=C2Oc2ccc(S(=O)(=O)O)cc2)N(CCCCCC(=O)NCCCC[C@H](NC(=O)CN2CCN(CC(=O)O)CCN(CC(=O)O)CCN(CC(=O)O)CC2)C(=O)N[C@@H](CCCCNC(=O)CCCCCCC(=O)NCCCC[C@H](NC(=O)N[C@@H](CCC(=O)O)C(=O)O)C(=O)O)C(=O)O)c2ccc(S(=O)(=O)O)cc21 (single isomer, unassigned) [Compound 1]
PSMA [1]
  PSMA inhibition, in words: potent inhibitors of PSMA
[2]
  emission maximum: 792 nm
  fluorescence lifetime: 420 psec
  extinction coefficient: 181,000 M^−1cm^−1
  absorbance maximum: 776 nm
  quantum yield: ~ 8.9%

## CC1(C)C(=CC=C2CCCC(C=CC3=[N+](CCCCS(=O)(=O)O)c4ccc(S(=O)(=O)[O-])cc4C3(C)C)=C2Oc2ccc(S(=O)(=O)O)cc2)N(CCCCCC(=O)NCCCC[C@H](NC(=O)CN2CCN(CC(=O)O)CCN(CC(=O)O)CCN(CC(=O)O)CC2)C(=O)N[C@@H](CCCCNC(=O)CCCCCCC(=O)NCCCC[C@H](NC(=O)N[C@@H](CCC(=O)O)C(=O)O)C(=O)O)C(=O)O)c2ccc(S(=O)(=O)O)cc21 (single isomer, unassigned) [[^111In]1, metal not drawn]
In vivo
  tissue uptake at 1 h: 2.1 ± 0.7 %ID/g
  tissue uptake at 2 h: 2.1 ± 0.5 %ID/g
  tissue uptake at 5 h: 1.9 ± 0.2 %ID/g
  tissue uptake at 24 h: 2 ± 0.2 %ID/g
[3]; 1 h
  tissues with highest uptake at 1 h: The blood, spleen, gastrointestinal tract, kidney and bladder displayed the highest uptake at 1 h
[3]; 1 h to 24 h
  kidney clearance, in words: Steady clearance from the kidneys
[3]; bladder
  tissue uptake at 1 h: 4.1 ± 1.7 %ID/g
  tissue uptake at 2 h: 2.7 ± 1 %ID/g
  tissue uptake at 5 h: 1.1 ± 0.6 %ID/g
  tissue uptake at 24 h: 2 ± 0.5 %ID/g
[3]; blood
  tissue uptake at 1 h: 9.9 ± 5 %ID/g
  tissue uptake at 2 h: 7.1 ± 1.2 %ID/g
  tissue uptake at 5 h: 4.1 ± 0.8 %ID/g
  tissue uptake at 24 h: 0.9 %ID/g
[3]; heart
  tissue uptake at 1 h: 3.3 ± 0.5 %ID/g
  tissue uptake at 2 h: 1.8 ± 0.3 %ID/g
  tissue uptake at 5 h: 1.8 ± 0.1 %ID/g
  tissue uptake at 24 h: 0.8 ± 0.1 %ID/g
[3]; kidney
  tissue uptake at 1 h: 104 ± 9.4 %ID/g
  tissue uptake at 2 h: 97.1 ± 13 %ID/g
  tissue uptake at 5 h: 122 ± 21.6 %ID/g
  tissue uptake at 24 h: 48.1 ± 17.7 %ID/g
[3]; large intestine
  tissue uptake at 1 h: 1.5 ± 0.5 %ID/g
  tissue uptake at 2 h: 1.3 ± 0.3 %ID/g
  tissue uptake at 5 h: 0.8 ± 0.5 %ID/g
  tissue uptake at 24 h: 2 ± 0.4 %ID/g
[3]; liver
  tissue uptake at 1 h: 2.4 ± 0.1 %ID/g
  tissue uptake at 2 h: 2.2 %ID/g
  tissue uptake at 5 h: 3.2 ± 1.2 %ID/g
  tissue uptake at 24 h: 3.1 ± 0.4 %ID/g
[3]; muscle
  tissue uptake at 1 h: 1.2 ± 0.6 %ID/g
  tissue uptake at 2 h: 0.7 ± 0.2 %ID/g
  tissue uptake at 5 h: 0.9 ± 0.2 %ID/g
  tissue uptake at 24 h: 0.4 %ID/g
[3]; pancreas
  tissue uptake at 1 h: 2.1 ± 0.1 %ID/g
  tissue uptake at 2 h: 1.3 ± 0.3 %ID/g
  tissue uptake at 5 h: 2 ± 1 %ID/g
  tissue uptake at 24 h: 1 ± 0.3 %ID/g
[3]; small intestine
  tissue uptake at 1 h: 1.8 ± 0.5 %ID/g
  tissue uptake at 2 h: 1.5 ± 0.2 %ID/g
  tissue uptake at 5 h: 1.6 ± 0.3 %ID/g
  tissue uptake at 24 h: 2 ± 0.7 %ID/g
[3]; spleen
  tissue uptake at 1 h: 11.3 ± 3.7 %ID/g
  tissue uptake at 2 h: 6.8 ± 0.9 %ID/g
  tissue uptake at 5 h: 4.8 ± 2.4 %ID/g
  tissue uptake at 24 h: 8.2 ± 5.4 %ID/g
[3]; stomach
  tissue uptake at 1 h: 1.4 ± 0.3 %ID/g
  tissue uptake at 2 h: 1.2 ± 0.1 %ID/g
  tissue uptake at 5 h: 2.4 ± 1.8 %ID/g
  tissue uptake at 24 h: 1 ± 0.1 %ID/g
[4]; 37 MBq IV, imaged repeatedly over two days
  radiotracer uptake on in vivo imaging: Intense radiotracer uptake was seen only in the PSMA+ PIP tumors and in the kidneys
[4]; single injection of ~0.22 μg (0.1 nmol)
  tumor visualization by NIRF imaging: able to visualize tumor with NIRF imaging
PSMA [5]
  blocking of uptake in PSMA+ PC3 PIP tumor and kidney by ZJ43: effective blocking in PSMA+ PC3 PIP tumor and kidney
[6]
  tissue uptake at 1 h: 13.9 ± 1.9 %ID/g
  tissue uptake at 2 h: 13.3 ± 2.4 %ID/g
  tissue uptake at 5 h: 16.4 ± 3.7 %ID/g
  tissue uptake at 24 h: 14.6 ± 1.3 %ID/g
PSMA+ PC3-PIP xenografts; 1h
  PIP:flu uptake ratio: 6.7
PSMA+ PC3-PIP xenografts; 2h
  PIP:flu uptake ratio: 6.3
PSMA+ PC3-PIP xenografts; 5h
  PIP:flu uptake ratio: 8.7
PSMA+ PC3-PIP xenografts; 24h
  PIP:flu uptake ratio: 7.4
PSMA+ PC3-PIP xenografts; biodistribution, up to 24 h
  binding and accumulation in PSMA+ PC3-PIP xenografts, in words: PSMA dependent binding in PSMA+ PC3-PIP xenografts with rapid accumulation at the tumor site that persisted throughout the course of the experiment

## CC1(C)C(=CC=C2CCCC(C=CC3=[N+](CCCCS(=O)(=O)O)c4ccc(S(=O)(=O)[O-])cc4C3(C)C)=C2Oc2ccc(S(=O)(=O)O)cc2)N(CCCCCC(=O)NCCCC[C@H](NC(=O)CN2CCN(CC(=O)O)CCN(CC(=O)O)CCN(CC(=O)O)CC2)C(=O)N[C@@H](CCCCNC(=O)CCCCCCC(=O)NCCCC[C@H](NC(=O)N[C@@H](CCC(=O)O)C(=O)O)C(=O)O)C(=O)O)c2ccc(S(=O)(=O)O)cc21 (single isomer, unassigned) [[^113/^115In]1]
PSMA [1]
  PSMA inhibition, in words: potent inhibitors of PSMA
[2]
  emission maximum: 792 nm
  fluorescence lifetime: 483 psec
  extinction coefficient: 181,000 M^−1cm^−1
  absorbance maximum: 776 nm
  quantum yield: ~ 8.9%
[2]; comparison of 1 and [^113/^115In]1
  spectral properties of 1 versus [^113/^115In]1, in words: did not observe any significant changes in the spectral properties
